From IntAct's records for PubMed 21102444

B1: Protein DOM34 (Saccharomyces cerevisiae), P33309 (parent)
chain: MKVISLKKDSFNKGGAVITLLPEDKEDLFTVYQIVDKDDELIFKKKFTSKLDEAGKKKSTDLVKLKIKVISEDFDMKDEYLKYKGVTVTDESGASNVDIPVGKYLSFTLDYVYPFTIIKQNFNKFMQKLLNEACNIEYKSDTAAVVLQEGIAHVCLVTSSSTILKQKIEYSMPKKKRTTDVLKFDEKTEKFYKAIYSAMKKDLNFDKLKTIILCSPGFYAKILMDKIFQYAEEEHNKKILDNKGMFFIAHCSTGYLQGINEVLKNPLYASKLQDTKYSKEIMVMDEFLLHLNKDDDKAWYGEKEVVKAAEYGAISYLLLTDKVLHSDNIAQREEYLKLMDSVESNGGKALVLSTLHSLGEELDQLTGIACILKYPLPDLDEDDGEE
partner: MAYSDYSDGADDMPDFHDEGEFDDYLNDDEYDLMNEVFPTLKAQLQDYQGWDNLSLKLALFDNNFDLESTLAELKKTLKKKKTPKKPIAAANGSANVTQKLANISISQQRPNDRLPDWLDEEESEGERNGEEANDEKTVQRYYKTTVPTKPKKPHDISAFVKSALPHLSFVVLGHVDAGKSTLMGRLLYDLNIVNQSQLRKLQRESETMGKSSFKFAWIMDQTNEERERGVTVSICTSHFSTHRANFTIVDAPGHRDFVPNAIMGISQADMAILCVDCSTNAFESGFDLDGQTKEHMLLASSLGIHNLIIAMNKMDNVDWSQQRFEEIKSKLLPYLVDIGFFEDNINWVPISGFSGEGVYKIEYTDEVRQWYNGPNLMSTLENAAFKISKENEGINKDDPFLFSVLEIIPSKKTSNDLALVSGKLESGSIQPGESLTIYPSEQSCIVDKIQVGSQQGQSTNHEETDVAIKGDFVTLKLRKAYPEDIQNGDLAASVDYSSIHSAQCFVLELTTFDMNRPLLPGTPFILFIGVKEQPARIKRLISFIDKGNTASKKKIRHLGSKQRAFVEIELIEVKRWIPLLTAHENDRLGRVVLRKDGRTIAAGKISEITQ
B2: Elongation factor 1 alpha-like protein (Saccharomyces cerevisiae), P32769 (parent)
chain: B1 partner
partner: B1 chain

Variants of: B1
Conditions: with hbs1_yeast HBS1, P32769

Effect of a mutation on the interaction, disrupting interaction:
K174A;K175A;K176A;R177A
E361A;Q364A
S215A;P216A;F218A
E361R
Y300A;E361A

Variants of: B2
Conditions: with dom34_yeast DOM34, P33309

Effect of a mutation on the interaction, disrupting interaction:
R517E
R557A;H558A
R256A;D257A;F258A
L520R
